Values belong to the binder of their own block, whether it stands above or below them. [ ]: non-standard residue; d: D form.
Molecular target: T1, (7× His)-PSD-95-PDZ2 wild type (UniProt P78352 160-246)
T1 construct: domain: PDZ2; recombinant from E. coli; also called PSD-95-PDZ2 WT; not shown: 7x His tag
Assay: FP competition

T1 sequence (P78352 160-246): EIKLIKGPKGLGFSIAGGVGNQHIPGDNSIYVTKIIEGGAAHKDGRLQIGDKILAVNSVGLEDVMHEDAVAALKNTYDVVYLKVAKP

B1: cyclic nNOS β-hairpin peptide L107K (peptide)
peptide: cyclo(THKETTFTGDGTPKTIRVTQ[dP]GQ)
SMILES: CC[C@H](C)[C@@H]1NC(=O)[C@H]([C@@H](C)O)NC(=O)[C@H](CCCCN)NC(=O)[C@@H]2CCCN2C(=O)[C@H]([C@@H](C)O)NC(=O)CNC(=O)[C@H](CC(=O)O)NC(=O)CNC(=O)[C@H]([C@@H](C)O)NC(=O)[C@H](Cc2ccccc2)NC(=O)[C@H]([C@@H](C)O)NC(=O)[C@H]([C@@H](C)O)NC(=O)[C@H](CCC(=O)O)NC(=O)[C@H](CCCCN)NC(=O)[C@H](Cc2c[nH]cn2)NC(=O)[C@H]([C@@H](C)O)NC(=O)[C@H](CCC(N)=O)NC(=O)CNC(=O)[C@H]2CCCN2C(=O)[C@H](CCC(N)=O)NC(=O)[C@H]([C@@H](C)O)NC(=O)[C@H](C(C)C)NC(=O)[C@H](CCCNC(=N)N)NC1=O
Ki: 1200 nM | Relative Ki (Ki mut/Ki WT): 0.8

B3: cyclic nNOS β-hairpin peptide T105G (peptide)
peptide: cyclo(GHLETTFTGDGTPKTIRVTQ[dP]GQ)
SMILES: CC[C@H](C)[C@@H]1NC(=O)[C@H]([C@@H](C)O)NC(=O)[C@H](CCCCN)NC(=O)[C@@H]2CCCN2C(=O)[C@H]([C@@H](C)O)NC(=O)CNC(=O)[C@H](CC(=O)O)NC(=O)CNC(=O)[C@H]([C@@H](C)O)NC(=O)[C@H](Cc2ccccc2)NC(=O)[C@H]([C@@H](C)O)NC(=O)[C@H]([C@@H](C)O)NC(=O)[C@H](CCC(=O)O)NC(=O)[C@H](CC(C)C)NC(=O)[C@H](Cc2c[nH]cn2)NC(=O)CNC(=O)[C@H](CCC(N)=O)NC(=O)CNC(=O)[C@H]2CCCN2C(=O)[C@H](CCC(N)=O)NC(=O)[C@H]([C@@H](C)O)NC(=O)[C@H](C(C)C)NC(=O)[C@H](CCCNC(=N)N)NC1=O
Ki: 4500 nM | Relative Ki (Ki mut/Ki WT): 3

B4: cyclic nNOS β-hairpin peptide T119N (peptide)
peptide: cyclo(THLETTFTGDGTPKNIRVTQ[dP]GQ)
SMILES: CC[C@H](C)[C@@H]1NC(=O)[C@H](CC(N)=O)NC(=O)[C@H](CCCCN)NC(=O)[C@@H]2CCCN2C(=O)[C@H]([C@@H](C)O)NC(=O)CNC(=O)[C@H](CC(=O)O)NC(=O)CNC(=O)[C@H]([C@@H](C)O)NC(=O)[C@H](Cc2ccccc2)NC(=O)[C@H]([C@@H](C)O)NC(=O)[C@H]([C@@H](C)O)NC(=O)[C@H](CCC(=O)O)NC(=O)[C@H](CC(C)C)NC(=O)[C@H](Cc2c[nH]cn2)NC(=O)[C@H]([C@@H](C)O)NC(=O)[C@H](CCC(N)=O)NC(=O)CNC(=O)[C@H]2CCCN2C(=O)[C@H](CCC(N)=O)NC(=O)[C@H]([C@@H](C)O)NC(=O)[C@H](C(C)C)NC(=O)[C@H](CCCNC(=N)N)NC1=O
Ki: 18900 nM | Relative Ki (Ki mut/Ki WT): 12.6

B5: cyclic nNOS β-hairpin peptide T109S (peptide)
peptide: cyclo(THLESTFTGDGTPKTIRVTQ[dP]GQ)
SMILES: CC[C@H](C)[C@@H]1NC(=O)[C@H]([C@@H](C)O)NC(=O)[C@H](CCCCN)NC(=O)[C@@H]2CCCN2C(=O)[C@H]([C@@H](C)O)NC(=O)CNC(=O)[C@H](CC(=O)O)NC(=O)CNC(=O)[C@H]([C@@H](C)O)NC(=O)[C@H](Cc2ccccc2)NC(=O)[C@H]([C@@H](C)O)NC(=O)[C@H](CO)NC(=O)[C@H](CCC(=O)O)NC(=O)[C@H](CC(C)C)NC(=O)[C@H](Cc2c[nH]cn2)NC(=O)[C@H]([C@@H](C)O)NC(=O)[C@H](CCC(N)=O)NC(=O)CNC(=O)[C@H]2CCCN2C(=O)[C@H](CCC(N)=O)NC(=O)[C@H]([C@@H](C)O)NC(=O)[C@H](C(C)C)NC(=O)[C@H](CCCNC(=N)N)NC1=O
Ki: 24500 nM | Relative Ki (Ki mut/Ki WT): 2.51

B7: cyclic nNOS β-hairpin peptide T116C (peptide)
peptide: cyclo(THLETTFTGDGCPKTIRVTQ[dP]GQ)
SMILES: CC[C@H](C)[C@@H]1NC(=O)[C@H]([C@@H](C)O)NC(=O)[C@H](CCCCN)NC(=O)[C@@H]2CCCN2C(=O)[C@H](CS)NC(=O)CNC(=O)[C@H](CC(=O)O)NC(=O)CNC(=O)[C@H]([C@@H](C)O)NC(=O)[C@H](Cc2ccccc2)NC(=O)[C@H]([C@@H](C)O)NC(=O)[C@H]([C@@H](C)O)NC(=O)[C@H](CCC(=O)O)NC(=O)[C@H](CC(C)C)NC(=O)[C@H](Cc2c[nH]cn2)NC(=O)[C@H]([C@@H](C)O)NC(=O)[C@H](CCC(N)=O)NC(=O)CNC(=O)[C@H]2CCCN2C(=O)[C@H](CCC(N)=O)NC(=O)[C@H]([C@@H](C)O)NC(=O)[C@H](C(C)C)NC(=O)[C@H](CCCNC(=N)N)NC1=O
Ki: 1360 nM | Relative Ki (Ki mut/Ki WT): 0.91

B10: cyclic nNOS β-hairpin peptide T123F (peptide)
peptide: cyclo(THLETTFTGDGTPKTIRVFQ[dP]GQ)
SMILES: CC[C@H](C)[C@@H]1NC(=O)[C@H]([C@@H](C)O)NC(=O)[C@H](CCCCN)NC(=O)[C@@H]2CCCN2C(=O)[C@H]([C@@H](C)O)NC(=O)CNC(=O)[C@H](CC(=O)O)NC(=O)CNC(=O)[C@H]([C@@H](C)O)NC(=O)[C@H](Cc2ccccc2)NC(=O)[C@H]([C@@H](C)O)NC(=O)[C@H]([C@@H](C)O)NC(=O)[C@H](CCC(=O)O)NC(=O)[C@H](CC(C)C)NC(=O)[C@H](Cc2c[nH]cn2)NC(=O)[C@H]([C@@H](C)O)NC(=O)[C@H](CCC(N)=O)NC(=O)CNC(=O)[C@H]2CCCN2C(=O)[C@H](CCC(N)=O)NC(=O)[C@H](Cc2ccccc2)NC(=O)[C@H](C(C)C)NC(=O)[C@H](CCCNC(=N)N)NC1=O
Ki: 1580 nM | Relative Ki (Ki mut/Ki WT): 1.05

B11: cyclic nNOS β-hairpin peptide T119S (peptide)
peptide: cyclo(THLETTFTGDGTPKSIRVTQ[dP]GQ)
SMILES: CC[C@H](C)[C@@H]1NC(=O)[C@H](CO)NC(=O)[C@H](CCCCN)NC(=O)[C@@H]2CCCN2C(=O)[C@H]([C@@H](C)O)NC(=O)CNC(=O)[C@H](CC(=O)O)NC(=O)CNC(=O)[C@H]([C@@H](C)O)NC(=O)[C@H](Cc2ccccc2)NC(=O)[C@H]([C@@H](C)O)NC(=O)[C@H]([C@@H](C)O)NC(=O)[C@H](CCC(=O)O)NC(=O)[C@H](CC(C)C)NC(=O)[C@H](Cc2c[nH]cn2)NC(=O)[C@H]([C@@H](C)O)NC(=O)[C@H](CCC(N)=O)NC(=O)CNC(=O)[C@H]2CCCN2C(=O)[C@H](CCC(N)=O)NC(=O)[C@H]([C@@H](C)O)NC(=O)[C@H](C(C)C)NC(=O)[C@H](CCCNC(=N)N)NC1=O
Ki: 7190 nM | Relative Ki (Ki mut/Ki WT): 4.79

Binders with a lower Ki, results first:

Ki: 510 nM | Relative Ki (Ki mut/Ki WT): 0.34
B2: cyclic nNOS β-hairpin peptide T116N (peptide)
peptide: cyclo(THLETTFTGDGNPKTIRVTQ[dP]GQ)
SMILES: CC[C@H](C)[C@@H]1NC(=O)[C@H]([C@@H](C)O)NC(=O)[C@H](CCCCN)NC(=O)[C@@H]2CCCN2C(=O)[C@H](CC(N)=O)NC(=O)CNC(=O)[C@H](CC(=O)O)NC(=O)CNC(=O)[C@H]([C@@H](C)O)NC(=O)[C@H](Cc2ccccc2)NC(=O)[C@H]([C@@H](C)O)NC(=O)[C@H]([C@@H](C)O)NC(=O)[C@H](CCC(=O)O)NC(=O)[C@H](CC(C)C)NC(=O)[C@H](Cc2c[nH]cn2)NC(=O)[C@H]([C@@H](C)O)NC(=O)[C@H](CCC(N)=O)NC(=O)CNC(=O)[C@H]2CCCN2C(=O)[C@H](CCC(N)=O)NC(=O)[C@H]([C@@H](C)O)NC(=O)[C@H](C(C)C)NC(=O)[C@H](CCCNC(=N)N)NC1=O

Ki: 950 nM | Relative Ki (Ki mut/Ki WT): 0.63
B6: cyclic nNOS β-hairpin peptide T112D (peptide)
peptide: cyclo(THLETTFDGDGTPKTIRVTQ[dP]GQ)
SMILES: CC[C@H](C)[C@@H]1NC(=O)[C@H]([C@@H](C)O)NC(=O)[C@H](CCCCN)NC(=O)[C@@H]2CCCN2C(=O)[C@H]([C@@H](C)O)NC(=O)CNC(=O)[C@H](CC(=O)O)NC(=O)CNC(=O)[C@H](CC(=O)O)NC(=O)[C@H](Cc2ccccc2)NC(=O)[C@H]([C@@H](C)O)NC(=O)[C@H]([C@@H](C)O)NC(=O)[C@H](CCC(=O)O)NC(=O)[C@H](CC(C)C)NC(=O)[C@H](Cc2c[nH]cn2)NC(=O)[C@H]([C@@H](C)O)NC(=O)[C@H](CCC(N)=O)NC(=O)CNC(=O)[C@H]2CCCN2C(=O)[C@H](CCC(N)=O)NC(=O)[C@H]([C@@H](C)O)NC(=O)[C@H](C(C)C)NC(=O)[C@H](CCCNC(=N)N)NC1=O

Ki: 1160 nM | Relative Ki (Ki mut/Ki WT): 0.77
B8: cyclic nNOS β-hairpin peptide T116P (peptide)
peptide: cyclo(THLETTFTGDGPPKTIRVTQ[dP]GQ)
SMILES: CC[C@H](C)[C@@H]1NC(=O)[C@H]([C@@H](C)O)NC(=O)[C@H](CCCCN)NC(=O)[C@@H]2CCCN2C(=O)[C@@H]2CCCN2C(=O)CNC(=O)[C@H](CC(=O)O)NC(=O)CNC(=O)[C@H]([C@@H](C)O)NC(=O)[C@H](Cc2ccccc2)NC(=O)[C@H]([C@@H](C)O)NC(=O)[C@H]([C@@H](C)O)NC(=O)[C@H](CCC(=O)O)NC(=O)[C@H](CC(C)C)NC(=O)[C@H](Cc2c[nH]cn2)NC(=O)[C@H]([C@@H](C)O)NC(=O)[C@H](CCC(N)=O)NC(=O)CNC(=O)[C@H]2CCCN2C(=O)[C@H](CCC(N)=O)NC(=O)[C@H]([C@@H](C)O)NC(=O)[C@H](C(C)C)NC(=O)[C@H](CCCNC(=N)N)NC1=O

Ki: 1040 nM | Relative Ki (Ki mut/Ki WT): 0.69
B9: cyclic nNOS β-hairpin peptide T116W (peptide)
peptide: cyclo(THLETTFTGDGWPKTIRVTQ[dP]GQ)
SMILES: CC[C@H](C)[C@@H]1NC(=O)[C@H]([C@@H](C)O)NC(=O)[C@H](CCCCN)NC(=O)[C@@H]2CCCN2C(=O)[C@H](Cc2c[nH]c3ccccc23)NC(=O)CNC(=O)[C@H](CC(=O)O)NC(=O)CNC(=O)[C@H]([C@@H](C)O)NC(=O)[C@H](Cc2ccccc2)NC(=O)[C@H]([C@@H](C)O)NC(=O)[C@H]([C@@H](C)O)NC(=O)[C@H](CCC(=O)O)NC(=O)[C@H](CC(C)C)NC(=O)[C@H](Cc2c[nH]cn2)NC(=O)[C@H]([C@@H](C)O)NC(=O)[C@H](CCC(N)=O)NC(=O)CNC(=O)[C@H]2CCCN2C(=O)[C@H](CCC(N)=O)NC(=O)[C@H]([C@@H](C)O)NC(=O)[C@H](C(C)C)NC(=O)[C@H](CCCNC(=N)N)NC1=O
